We go through 1 molecule from paper PMC8844851 (The Journal of Biological Chemistry, 2022).

The assay deals with T1, C-terminally FLAG-tagged Cdc123 (S. cerevisiae, UniProt Q05791 1-360).
T1 construct: Cdc123 of S. cerevisiae; also called Cdc123^FLAG; source: S. cerevisiae, in lysate; not shown: FLAG, C-terminal, kept
T1 sequence (looked up): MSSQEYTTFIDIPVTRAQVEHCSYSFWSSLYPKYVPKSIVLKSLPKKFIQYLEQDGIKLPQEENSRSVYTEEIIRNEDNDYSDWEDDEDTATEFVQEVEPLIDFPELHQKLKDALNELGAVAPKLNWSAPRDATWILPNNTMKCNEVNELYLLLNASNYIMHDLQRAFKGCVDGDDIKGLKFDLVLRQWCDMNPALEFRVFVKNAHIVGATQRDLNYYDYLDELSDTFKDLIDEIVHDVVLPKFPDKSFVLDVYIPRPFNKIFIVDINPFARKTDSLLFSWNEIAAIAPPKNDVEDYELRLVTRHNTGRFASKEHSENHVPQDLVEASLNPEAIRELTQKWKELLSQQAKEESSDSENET
The experiment in a line: co-IP; Cdc123-FLAG precipitated with anti-FLAG beads from yeast extract, 4 °C, 2 h; subunit signal in IP normalised to whole cell extract, Gcd11 set to 100% (n = 3); also SUI2/SUI2 against sui2Δ/SUI2 diploid strains (n = 4). The conditions noted are these: partners not purified.

B1: yeast eIF2γ (Gcd11) (natural protein, UniProt P32481 1-527, looked up)
chain: MSDLQDQEPSIIINGNLEPVGEPDIVEETEVVAQETQETQDADKPKKKVAFTGLEEDGETEEEKRKREFEEGGGLPEQPLNPDFSKLNPLSAEIINRQATINIGTIGHVAHGKSTVVRAISGVQTVRFKDELERNITIKLGYANAKIYKCQEPTCPEPDCYRSFKSDKEISPKCQRPGCPGRYKLVRHVSFVDCPGHDILMSTMLSGAAVMDAALLLIAGNESCPQPQTSEHLAAIEIMKLKHVIILQNKVDLMREESALEHQKSILKFIRGTIADGAPIVPISAQLKYNIDAVNEFIVKTIPVPPRDFMISPRLIVIRSFDVNKPGAEIEDLKGGVAGGSILNGVFKLGDEIEIRPGIVTKDDKGKIQCKPIFSNIVSLFAEQNDLKFAVPGGLIGVGTKVDPTLCRADRLVGQVVGAKGHLPNIYTDIEINYFLLRRLLGVKTDGQKQAKVRKLEPNEVLMVNIGSTATGARVVAVKADMARLQLTSPACTEINEKIALSRRIEKHWRLIGWATIKKGTTLEPIA
notes: Gcd11, eIF2 gamma subunit of S. cerevisiae, untagged endogenous protein detected with antiserum; source: endogenous, S. cerevisiae (W303 derivatives) lysate
For the molecule B1, the “fold increase of coprecipitation in the sui2Δ/SUI2 strain over SUI2/SUI2” value was 1.3 fold.
